Target: T1, mCherry–Gβ1γ2 dimer (UniProt P62873 1-340; P59768 1-71, 20-carbon geranylgeranyl lipid on the cysteine of the C-terminal CaaX motif (said of Gγ2 in general))
T1 construct: Gβ1 subunit; cDNA in pcDNA3.1+ from UMR cDNA Resource Center; FP cloned at the N-terminus; Gγ2 subunit; source: HEK 293, transiently co-transfected (mCherry–Gβ1 and Gγ2), in living cells; not shown: mCherry, N-terminal, kept
Experiment: FRET or BRET; FLIM-FRET in living transiently transfected HEK 293 cells at 37 °C; donor Citrine in Gα, acceptor mCherry on Gβ1 with the appropriate Gγ; efficiency E = 1 − τda/τd from the short lifetime component τ1 (donor alone 2.7 ± 0.1 ns), analysed only at the plasma membrane; GppNHp added to the culture did not change the signal
Details: partners not purified

B1: Citrine–Gαs (natural protein)
chain: MGCLGNSKTEDQRNEEKAQREANKKIEKQLQKDKQVYRATHRLLLLGAGESGKSTIVKQMRILHVNGFNGNSDGEKATKVQDIKNNLKEAIETIVAAMSNLVPPVELANPENQFRVDYILSVMNVPDFDFPPEFYEHAKALWEDEGVRACYERSNEYQLIDCAQYFLDKIDVIKQADYVPSDQDLLRCRVLTSGIFETKFQVDKVNFHMFDVGGQRDERRKWIQCFNDVTAIIFVVASSSYNMVIREDNQTNRLQEALNLFKSIWNNRWLRTISVILFLNKQDLLAEKVLAGKSKIEDYFPEFARYTTPEDATPEPGEDPRVTRAKYFIRDEFLRISTASGDGRHYCYPHFTCAVDTENIRRVFNDCRDIIQRMHLRQYELL
notes: Gαs subunit (stimulatory G-protein alpha subunit); cDNA in pcDNA3.1+ from UMR cDNA Resource Center; also called wild-type Gαs; loop-tagged Gαs; source: HEK 293, transiently transfected; in living cells (FLIM-FRET) and in cell lysate (pull-down); not shown: Citrine, internal (in place of the loop Glu71-Ser82), kept
FRET efficiency: 19.7%
